Earlier results as cited in publication PMC11853434.
Like-named read-outs stand apart in the source and are kept apart here.

Tests used:
[1] = target: SARS-CoV-2 spike RBD RBD (Severe acute respiratory syndrome coronavirus 2) (UniProt P0DTC2)
[2] = target: SARS-CoV-2 spike RBD RBD (Severe acute respiratory syndrome coronavirus 2) (UniProt P0DTC2); remark: listed apart in the source

Substance | Kd [1] [µM] | Kd [2] [µM]
casirivimab | 0.00337 | –
imdevimab | – | 0.0452
